B1: 10F7 scFv (tested as anti-CD38 CARs, versions V1, V2 and V3) (scFv)
scFv: QAYLQQSGAELVRSGASVKMSCKASGYTFTSYNMHWVKQTPGQGLEWIGYIYPGNGGTNYNQKFKDKATLTADTSSSTAYMQISSLTSEDSAVYFCARGGQLGRPWFAYWGQGTLVTVSAGGGGSGGGGSGGGGSNIVLTQSPASLAASPGQRATISCRASESVDSYGNTFMYWYQQKPGQPPKLLIYLASNLESGVPVRFSGSGSRTDFTLTIDPVEADDAATYYCQQNNEDPWTFGGGTKVEIK
B2: 13F11 scFv (tested as anti-CD38 CARs, versions V1, V2 and V3) (scFv)
scFv: QIQLVQSGPELKKPGETVKISCKASGYTFKKYGMNWVKQAPGKGLKWMGWINTNTGEPTYAEEFKGRFAFSLETSASTAYLQINNLKNEDTATYFCARWYYGSTPSSYTMDYWGQGTSVTVSSGGGGSGGGGSGGGGSETTVTQSPASLSVATGEKVTIRCITSTDIDDDMNWYQQKPGEPPKVLISEGNTLRPGVPSRFSSSGYGTDFVFTIENTLSEDVADYYCLQSNNMPYTFGGGTKLEIK
B3: 27B6 scFv (tested as anti-CD38 CARs, versions V1, V2 and V3) (scFv)
scFv: QVQLKQSGPGLVQPSQSLSITCTVSGFSLTSYNIDWVRQSPGKGLEWLGVIWSGGSTDYNAAFISRLKISKDDSKSQVFFKMNSLQSDDTAIYYCARHSPLVSTPDWYFDVWGAGTTVTVSSGGGGSGGGGSGGGGSQIVLTQSPAIMSASPGEKVTMTCSTSSSVSYMHWYQQKSGTSPKRWIYDTSKLASGVPARFSGSGSGTSYSLTINNMEAEDAATYSCQQWSSYPPTFGGGTKLEIK
B4: 25A10 scFv (tested as anti-CD38 CARs, versions V1, V2 and V3) (scFv)
scFv: EVQLQQSGAELVRPGASVKLSCTASGFNIKDSLIHWVKQRPEQGLEWIGWIDPEDDKTKYAPKFQDKATLTADTSSNTAYLQLSTLTSEDTAIYYCVSRYINYYFAYWGQGTTLTVSSGGGGSGGGGSGGGGSDIVMTQSPSSLTVTAGEKVTMSCKSSQSLLHSGNQRNYLTWYQQKPGQPPKLLIYWASTRESGVPDRFTGSGSGTDFTLTISSVQAEDLAVYYCQNDYDYPYTFGGGTKLEIK
B5: 29B4 scFv (tested as anti-CD38 CARs, versions V1, V2 and V3) (scFv)
scFv: EVQLVESGGGLVKPGGSLKLSCAASGFTFSDYFMYWVRQTPEKRLEWVAIISDGGIYTYYPDSVKGRFTISRDNAKNNLYLQMSSLKSEDTAMYYCARDGRDDYDGWYFDVWGAGTTVTVSSGGGGSGGGGSGGGGSDIVMTQSHKFMSTSVGDRVNITCKASQDVNTAVAWYQQKPGQSPKLLIYWASTRHAGVPDRFTGSGSGTDYALTISSVQAEDLALYYCQQHYSTPRTFGGGTKLEIK
B6: 16B5 scFv (tested as anti-CD38 CARs, versions V1, V2 and V3) (scFv)
scFv: QAYLQQSGAELVRSGASVKMSCKASGYTFTSYNLHWVKQTPGQGLEWIGYIYPGNGGTNYNQKFKGKATLTADTSSSTAYMQISSLTSEDSAVYFCARGGIYYYGSSLDYWGQGTTLTVSSGGGGSGGGGSGGGGSNIVLTQSPASLAVSLGQRATISCRASESVDNYGTTFMYWYQQKPGQPPKLLIYLASNLESGVPARFSGSGSGTDFTLTIDPVEADDAATYYCQQNKEDPWTFGGGTKLEIK
B7: GMB005 scFv (tested as anti-CD38 tool CARs, versions V1, V2 and V3) (scFv)
scFv: EVQLLESGGGLVQPGGSLRLSCAVSGFTFNSFAMSWVRQAPGKGLEWVSAISGSGGGTYYADSVKGRFTISRDNSKNTLYLQMNSLRAEDTAVYFCAKDKILWFGEPVFDYWGQGTLVTVSSASGGGGSGGGGSGGGGSEIVLTQSPATLSLSPGERATLSCRASQSVSSYLAWYQQKPGQAPRLLIYDASNRATGIPARFSGSGSGTDFTLTISSLEPEDFAVYYCQQRSNWPPTFGQGTKVEIK

This note sets out measurements from patent US20180236053A1 (published 2018).

The target in this assay is CD38 antigen on the surface of cells (U266 CD38+, MOLP8, Daudi, T-ALL cell lines, activated T cells) (human, UniProt P28907 1-300).
Usually Kd stands for the constant that tells how readily two partners part at equilibrium. In the case of B1, binding was characterised by a dissociation constant (Kd) of 30 nM.

B2 showed a Kd of 0.8 nM.

Molecule B3 came in with a Kd of 2.2 nM.

B4: the affinity, expressed as Kd, was 0.25 nM.

B5 gave a Kd of 0.52 nM.

Molecule B6 showed a dissociation constant Kd of 3.2 nM.

With B7, the Kd was found to be 119 nM.
